In general, stoichiometry N refers to a count of units in the complex or per binding partner. By Km is commonly meant the concentration of substrate that gives half-maximal velocity. As a reminder, the kcat is the maximal rate divided by the concentration of active sites. In general, kcat/Km refers to the second-order rate constant that governs catalysis at low substrate concentration.

The target of data set [1] is AnOYE8 (Aspergillus niger CBS 513.88). In words: crystal structure; N-terminal His6-tagged AnOYE8, 15 mg/mL in Tris-HCl pH 8.0 50 mM; PEG 5000 MME 18% w/v, MES pH 6.5 0.1 M, ammonium sulphate 0.2 M, 293 K; space group C121, four molecules per asymmetric unit.
The target is the same in data set [2]. In words: native gel or EMSA; BN-PAGE, NativePAGE 3 to 12% Bis-Tris gel, 12.5 ug of sample from each gel filtration peak, 150 V for 2 h; BSA and HSA for comparison of the MWs. For orientation: Mobility shift assays separate free from complexed probe on a gel.
Data set [3] has the same target. Nature of the data set: SEC; analytical gel filtration, Superdex 200 10/300 GL, 150 ug purified protein, Tris-HCl pH 8.0 50 mM, NaCl 150 mM, 1 mL/min; apparent molecular weight from a calibration curve.
Data set [4] concerns the target BfOYE1 (Botryotinia fuckeliana B05.10). In words: native gel or EMSA.
Data set [5] has the same target. Nature of the data set: SEC; analytical gel filtration, Superdex 200 10/300 GL, 150 ug purified protein, Tris-HCl pH 8.0 50 mM, NaCl 150 mM, 1 mL/min; apparent molecular weight from a calibration curve.
A further data set addresses T1, AnOYE8 (Aspergillus niger, UniProt A2QBV3).
T1 construct: gene An02g01330
T1 sequence (A2QBV3 1-421): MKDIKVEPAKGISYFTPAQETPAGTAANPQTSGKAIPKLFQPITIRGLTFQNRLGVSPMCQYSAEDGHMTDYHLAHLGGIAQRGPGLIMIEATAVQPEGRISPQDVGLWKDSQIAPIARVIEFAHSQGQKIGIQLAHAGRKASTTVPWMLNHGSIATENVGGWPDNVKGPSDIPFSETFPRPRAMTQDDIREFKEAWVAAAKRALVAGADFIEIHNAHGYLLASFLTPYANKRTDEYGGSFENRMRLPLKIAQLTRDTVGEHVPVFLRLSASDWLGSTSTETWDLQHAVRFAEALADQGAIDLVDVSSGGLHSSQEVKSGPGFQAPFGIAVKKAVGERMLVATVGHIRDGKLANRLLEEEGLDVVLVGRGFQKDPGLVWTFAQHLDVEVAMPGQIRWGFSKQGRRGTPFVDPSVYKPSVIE
Nature of the data set: X-ray crystal structure, […] Å. The following applies: active site, non-covalently bound; pH 6.5 crystals. The format is binding.

Substrate in data set [6]: O=C1C=CC(=O)N1
Nature of the data set: purified protein. The format is biochemical, Aspergillus niger. The following applies: NADPH 100 µM, Tris-HCl 50 mM pH 8.0, 25 °C, enzyme 20 nM.

Substrate in data set [7]: NC(=O)C1=CN([C@@H]2O[C@H](COP(=O)(O)OP(=O)(O)OC[C@H]3O[C@@H](n4cnc5c(N)ncnc54)[C@H](OP(=O)(O)O)[C@@H]3O)[C@@H](O)[C@H]2O)C=CC1
Nature of the data set: purified protein. The format is biochemical, Aspergillus niger. Particulars: maleimide 1 mM, Tris-HCl 50 mM pH 8.0, 25 °C, enzyme 20 nM.

Substrate in data set [8]: O=C1C=CCCC1
Nature of the data set: purified protein. Format: biochemical, Botrytis cinerea. The following applies: NADPH 100 µM, Tris-HCl 50 mM pH 8.0, 25 °C, enzyme 200 nM.

Substrate in data set [9]: O=C1C=CC(=O)N1
In words: purified protein. The format is biochemical, Botrytis cinerea. The following applies: NADPH 100 µM, Tris-HCl 50 mM pH 8.0, 25 °C, enzyme 20 nM.

Substrate in data set [10]: C=CC(=O)CCCCC
In words: purified protein. The format is biochemical, Botrytis cinerea. Particulars: NADPH 100 µM, Tris-HCl 50 mM pH 8.0, 25 °C, enzyme 200 nM.

Substrate in data set [11]: NC(=O)C1=CN([C@@H]2O[C@H](COP(=O)(O)OP(=O)(O)OC[C@H]3O[C@@H](n4cnc5c(N)ncnc54)[C@H](OP(=O)(O)O)[C@@H]3O)[C@@H](O)[C@H]2O)C=CC1
Nature of the data set: purified protein. The format is biochemical, Botrytis cinerea. Particulars: maleimide 1 mM, Tris-HCl 50 mM pH 8.0, 25 °C, enzyme 20 nM.

Substrate in data set [12]: CC1=CCCCC1=O
Nature of the data set: purified protein. The format is biochemical, Botrytis cinerea. Particulars: NADPH 100 µM, Tris-HCl 50 mM pH 8.0, 25 °C, enzyme 200 nM.

Substrate in data set [13]: O=C1C=CCC1
In words: purified protein. Format: biochemical, Botrytis cinerea. The following applies: NADPH 100 µM, Tris-HCl 50 mM pH 8.0, 25 °C, enzyme 200 nM.

As to AnOYE8 (enzyme), the stoichiometry N in [1], in data set [2] and in data set [3] was 2 in each case.

For BfOYE1 (enzyme), the stoichiometry N in data set [4] and in data set [5] was 2 throughout.

With `Cc1cc2nc3c(=O)[nH]c(=O)nc-3n(C[C@H](O)[C@H](O)[C@H](O)COP(=O)(O)O)c2cc1C` [FMN], at AnOYE8, the “X-ray crystal structure, 2.8 Å” value was “AnOYE8 accommodated a non-covalently bound FMN cofactor molecule”.

B1: AnOYE2 (Aspergillus niger CBS 513.88) (protein)
chain: MCSKLFQPLQIGKTNLEHRVVMAPLTRFRADSQHVPLPMATTYYEQRASVPGTLLIAEATLISPSAGGVPHAPGVWSEEQVNGWKKITEAVHKKGSFIFCQLIAAGRAADPAQLHAEGGFMLHAPSPIPIEPGMPVPKELDEIEVQEIINDFAMAAKNAIRAGFDGVEIHGANGYLVDQFLQDVSNKRNDKWGGSIPNRARFGLEVAKAVADAIGADRLGFRLSPWNTWQSMKMVDPVPQFTYFVERLQQLGLAYLHVIESRVINNVDCEKEGSIKFLLDVWGKSAPVIVAGGYRPENVENALEEEYKDYKVAVAFGRHFIANPDLPFRIRHDIHLNPYDRESFYTPLQENGYTDYPFSAEFIKSKTKC
Regarding B1, in “purified protein [6]”, the Km came out at 10 ± 0 µM, the kcat came to 7.38 ± 0.66 s⁻¹ and the kcat/Km is 738000 M⁻¹ s⁻¹. Further, in “purified protein [7]”, the Michaelis constant (Km) came out at 37 ± 10 µM, the kcat was determined as 8 ± 0.4 s⁻¹ and the kcat/Km is 216000 M⁻¹ s⁻¹.

B2: BfOYE4 (Botrytis cinerea B05.10) (protein)
chain: MSTPTPHPQHGVPCGTSTPRPGLLNTPAPGVPFYTPLQSPPSGTALHLSPSTPKLFTPLKIRSLTLQNRIMLSPMCQYSASNGHFTPWHMAHLGGIISRGPGLSMVEATSVLPEGRITPEDSGLWLDSQGDKLKEVVQFAHSQGQLIGIQLSHAGRKASMVAPWLDRSAVATEEAGGWPTKVKGPSAIPYDEHHYKPSAMTLEDIQEFKDAWAASLKRALKAGFDVIEIHNAHGYLLHEFVSPVSNKRTDQYGGSFENRIRLTLEIVEITRKIIPESMPLFLRISATDWLDYEGFGEESWTVADSARLAGILADRGVDLMDVSSGANHPRQKITAGLGYQAPFAKEIKRVVGERMLVGTVGMIGSGRQAEGLLSGMGGERGVDEGEEEEGKGTELDLVIVARGFQKNPGLVWEWAEELGVRIMVAHQMRWGFRGKAGGH
notes: N-terminal His6 tag, E. coli BL21(DE3), 421 residues, dimer in crystal, several oligomeric species in solution; cloning reported elsewhere
For the molecule B2, the Km in the data set “purified protein [8]” worked out at 650 ± 90 µM; in the data set “purified protein [9]”, 70 ± 10 µM; in the data set “purified protein [10]”, 2720 ± 500 µM; in “purified protein [11]”, 130 ± 20 µM; in the data set “purified protein [12]”, 1830 ± 180 µM; in the data set “purified protein [13]”, 1070 ± 120 µM. The kcat in the data set “purified protein [8]” was 2.57 ± 0.07 s⁻¹; in the data set “purified protein [9]”, 36.3 ± 1.12 s⁻¹; in the data set “purified protein [10]” it was 22.6 ± 1.14 s⁻¹; in the data set “purified protein [11]” it was 89.2 ± 3.37 s⁻¹; in “purified protein [12]”, 0.56 ± 0.013 s⁻¹; in the data set “purified protein [13]”, 1.06 ± 0.03 s⁻¹. Besides, the kcat/Km in “purified protein [8]” was 3900 M⁻¹ s⁻¹; in the data set “purified protein [9]”, 519000 M⁻¹ s⁻¹; in the data set “purified protein [10]” it was 8300 M⁻¹ s⁻¹; in “purified protein [11]” it was 686000 M⁻¹ s⁻¹; in “purified protein [12]”, 300 M⁻¹ s⁻¹; in the data set “purified protein [13]” it was 1000 M⁻¹ s⁻¹.

The values are drawn from article PMC8954901, “The Family Keeps on Growing: Four Novel Fungal OYEs Characterized” (International Journal of Molecular Sciences, 2022).
